Test results as given in US20170298096A1 (CANIMGUIDE THERAPEUTICS, published 2017).
No end group written: not given here.

T1: His-tagged P3028 (human, also: His-tag, terminus and sequence not given here)
T1 construct: in solution at 0.5 ug/mL over the peptide cards; found with anti-His-tag antibody and rabbit anti-mouse peroxidase (rampo); also called PGE73; not shown: His-tag
T1 peptide: VFDEFKPLVEEPQNLIK


Molecular target: T1, His-tagged P3028
Assay: PEPSCAN chip ELISA, His-P3028 in solution;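 note: score is the raw OD at 405 nm from peroxidase colour with ABTS, imaged by CCD camera before and after staining, with wells showing air bubbles set to zero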
Procedure: After washing, the peroxidase substrate 2,2′-azine-di-3-ethylbenzthiazoline sulfonate (ABTS) and 2 μL of 3% H2O2 were added. The binding capacity of the mAb was measured as a color development at 405 nm (optical density, OD405). The color development was quantified with a charge-coupled device (CCD)—camera and an image processing system.
The OD405-values obtained by a CCD-camera was considered as raw data values (“rampo values,” “rampo units,” or “rampo scores”). […] First the CCD-camera made a picture of the card before peroxidase coloring and then again a picture after the peroxidase coloring. […] These values were copied into an excel file and labeled as a raw data file. One follow-up manipulation was allowed. Sometimes a well can contain an air-bubble resulting in a false-positive value. If manual inspection of the cards detect an air-bubble the value are set to 0 for that well.

Binder	RAMPO Score [rampo score]
KGLDTFFVKLSLFTER [SEQ ID NO 412]	405
KKLTTFFVKLSLFTER [SEQ ID NO 413]	405
KKLDTFFVKLYLFTER [SEQ ID NO 415]	402
KKLDTFFIKLSLFTER [SEQ ID NO 416]	401
KMLDTFFVKLSLFTER [SEQ ID NO 417]	400
KHLDTFFVKLSLFTER [SEQ ID NO 418]	394
KKLDTFFVKLVLFTER [SEQ ID NO 419]	392
KKLDHFFVKLSLFTER [SEQ ID NO 420]	391
KFLDTFFVKLSLFTER [SEQ ID NO 421]	390
KKLDTFFVKLSFFTER [SEQ ID NO 422]	389
KKLMTFFVKLSLFTER [SEQ ID NO 423]	384
KKLDTFEVKLSLFTER [SEQ ID NO 424]	381
KKLDTFWVKLSLFTER [SEQ ID NO 425]	380
KKLFTFFVKLSLFTER [SEQ ID NO 426]	380
KKLDVFFVKLSLFTER [SEQ ID NO 429]	374
KKLDTFFVKLSGFTER [SEQ ID NO 431]	370
KKLDTFRVKLSLFTER [SEQ ID NO 432]	369
KKLDTFHVKLSLFTER [SEQ ID NO 433]	364
KKLDTYFVKLSLFTER [SEQ ID NO 434]	364
KKLPTFFVKLSLFTER [SEQ ID NO 435]	364
KKPDTFFVKLSLFTER [SEQ ID NO 436]	361
KKLDTFPVKLSLFTER [SEQ ID NO 437]	356
KKLDTFFVKLSKFTER [SEQ ID NO 438]	355
KKLDTFFVKLSLFTPR [SEQ ID NO 439]	351

Binder	RAMPO Score [rampo score]
KQLDTFFVKLSLFTER [SEQ ID NO 440]	350
KELDTFFVKLSLFTER [SEQ ID NO 441]	349
KKLDTFNVKLSLFTER [SEQ ID NO 443]	348
KKLDTWFVKLSLFTER [SEQ ID NO 444]	348
KKLDTFFVTLSLFTER [SEQ ID NO 445]	347
KKLDTGFVKLSLFTER [SEQ ID NO 446]	347
KKLDAFFVKLSLFTER [SEQ ID NO 447]	346
KKLQTFFVKLSLFTER [SEQ ID NO 448]	345
KKLCTFFVKLSLFTER [SEQ ID NO 449]	344
KKLDTFFVKLSLFTQR [SEQ ID NO 450]	344
KKLSTFFVKLSLFTER [SEQ ID NO 451]	344
KKYDTFFVKLSLFTER [SEQ ID NO 452]	344
SKLDTFFVKLSLFTER [SEQ ID NO 453]	344
KLLDTFFVKLSLFTER [SEQ ID NO 454]	343
KKLDTFFVKLSCFTER [SEQ ID NO 455]	342
KKLDEFFVKLSLFTER [SEQ ID NO 456]	341
KKLDTFFVKLCLFTER [SEQ ID NO 457]	341
KKWDTFFVKLSLFTER [SEQ ID NO 458]	341
KKLDTFFVKLSLFTYR [SEQ ID NO 459]	340
KKLDTKFVKLSLFTER [SEQ ID NO 460]	337
KDLDTFFVKLSLFTER [SEQ ID NO 461]	335
KKLDTCFVKLSLFTER [SEQ ID NO 462]	335
KKLDTFYVKLSLFTER [SEQ ID NO 463]	334
KKLDTFFVKLRLFTER [SEQ ID NO 464]	333

Binder	RAMPO Score [rampo score]
FKLDTFFVKLSLFTER [SEQ ID NO 465]	332
KKLDTHFVKLSLFTER [SEQ ID NO 466]	332
KILDTFFVKLSLFTER [SEQ ID NO 467]	331
KTLDTFFVKLSLFTER [SEQ ID NO 468]	331
KKLDTFFVQLSLFTER [SEQ ID NO 469]	330
KKLDTFFVKLPLFTER [SEQ ID NO 470]	328
KKLDTFFVKLSLFTKR [SEQ ID NO 471]	324
KKLDTFFVKLWLFTER [SEQ ID NO 472]	324
KKLDTFFVKLKLFTER [SEQ ID NO 473]	323
KKLDTFFVKLDLFTER [SEQ ID NO 474]	322
KKLDTFFVKLSYFTER [SEQ ID NO 475]	320
KKLDTFFVKLALFTER [SEQ ID NO 477]	318
KKLDTFFVKLSLFTHR [SEQ ID NO 478]	318
KKLHTFFVKLSLFTER [SEQ ID NO 479]	317
KKLRTFFVKLSLFTER [SEQ ID NO 480]	317
KVLDTFFVKLSLFTER [SEQ ID NO 481]	317
KKLDTFFVKWSLFTER [SEQ ID NO 482]	316
YKLDTFFVKLSLFTER [SEQ ID NO 483]	315
KKLDLFFVKLSLFTER [SEQ ID NO 484]	311
KALDTFFVKLSLFTER [SEQ ID NO 485]	309
KKLDTRFVKLSLFTER [SEQ ID NO 486]	309
KKLDTFFVHLSLFTER [SEQ ID NO 488]	306
KKLDTFFVKLSLFAER [SEQ ID NO 489]	305
